Assay results reported in article PMC6740198 (Molecular Biology of the Cell, 2019).

How the values were obtained:
[1] = molecular target: CD4-AChR β subunit MA loop chimera (UniProt P09690 333-469); test: co-IP
[2] = molecular target: acetylcholine receptor (AChR) (mouse (endogenous in C2C12 myotubes and mouse muscle)) (UniProt P04756); test: pull-down

B1: Flag-vezatin (natural protein, UniProt Q3ZK22 1-780, looked up)
chain: MTPEFDEEVVFENSPLYQYLQDLGHTDFEICSSSSPKPEKCLTTEGPQPPPTRVLQRQGILLKLTETIKSWTFSSQHSKKDDLLHKLDTGFRLDSLHTILQQEVLLQEDVELLELLDASILSAGQPQQESGHLPTLCSLATPNTWDVSLLFAFISLLIMFPTCWIVSSWLVWGIILFLYLIIRVLKLWRTAKLQMTLKKYRVRLEDMAANSRAFTNLVRKSLRLIQETEVISRGFTLVSAACSFNKAAQHPGQHLIGLRKAVYRTVRANFQAARLATLYMLKNYPLNSESDNVTNYICVVPFKELGLGLSEDQISEEEARNLTDGFSLPALKVLFQLWVAQSSEFFRRLALLLSTANSPSGPLLTAALLPHHILCDVTQGLPHAHSACLDELKRSYEFFRYFETQHQSVPQRLSKTPQKSRELSNVHTAVRSLQLHLKALLNEVIILEDELEKLVCTKETQELLSEAYPILEQKLKLIEPHVQASNSCWEEAISQVDKLLRRNTDKKGKPGVACENPHCTAEPLVRPALHIEDRDPIPEEQELEAYVDDIDIESEFRKDDFYHLSQEDRERQKREQEESRRVLQELKSVLGFKASEAERQKWKQLLFSDHAVLTSLSPVDPVESVSNSEPPMNSDTEKVNSNATEEETSKPCAGDKEDSRTEYVCDSPTEGPSKDTSADTGLLLPGAEETMCHQHESEAKSPQAAAAGATAPPTPRDTLQLSIKQRLARLQLPPEFTFSAGLAAEVAARSLSFTTMQEQTFGDEEEEQLVEGGENEVEEK
[1]
  fold reduction of association when rapsyn-HA is coexpressed: 4 fold
[2]
  fold increase in association in rapsn−/− against rapsn+/− muscle: 1.8 fold
  fold increase in association with agrin treatment (against untreated myotubes): 1.6 fold
